# Experimental data published in the supplement of paper PMC12042874.
# ± gives the uncertainty stated by the source.
# Experiment: amyloid nucleation score (Sup35N fusion, yeast selection) (log enrichment); library NNK2; higher = more nucleation; inactive = no reads after selection
# Procedure, shortened: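 On medium lacking adenine and uracil, psi-negative yeast expressing peptides of 20 random codons fused to Sup35N were grown 7 days at 30°C after a 24-hour induction with 100 μM copper sulfate. Illumina sequencing of input and output plasmid inserts gave the reads, and sequences under 100 input reads were excluded. The nucleation score is the DiMSum log enrichment of output over input reads, centred on the mode score of non-aggregating sequences.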
row,Substance,amyloid nucleation score
1,ATYNCVHRWGIFTSAYGSKC,-0.653 ± 0.56
2,AVDFKQDNHKYVNSLTDMGA,0.034 ± 1.1
3,AVFSSVLGYNA,0.257 ± 0.56
4,AVGNMDVQEGFTTSRADRGL,0.913 ± 0.21
5,AVKCVVEVTPWLDVKIKSFY,-0.735 ± 0.55
6,AVLLTMWYLNICTHIWVQTL,0.139 ± 0.33
7,AVSHCMDDSFWGAIHKRLLY,3.63 ± 0.15
8,AVVFGRGPSGYTHPMFRWPC,-0.754 ± 1.1
9,AWFCREKGNGFFFM,inactive
10,AWRAYITILGKDHAVSVSGL,0.715 ± 0.43
11,AWRDTHWTASCRSGSRRILS,4.59 ± 0.046
12,AYGKLSE,-0.68 ± 0.5
13,AYGVIGWCWSYGERNWVHVR,0.377 ± 0.49
14,AYHRWSTVLWILTYWTLRMC,0.053 ± 1.1
15,AYKSYGKASSDWMWGLCSHH,-0.108 ± 0.56
16,AYLTTREAVGLFNKACLASY,0.439 ± 0.74
17,AYMSITSSLYNCTRRPTGTC,-1.35 ± 0.38
18,AYRRYDWYFMLVRLLY,0.795 ± 0.5
19,AYSEPAISQRFFLSGLKSII,-0.885 ± 0.34
20,AYSIHPLNKGVKVSYRLAGH,0.306 ± 0.2
21,AYTFSNSVNVCCVGVLEVIV,5.8 ± 0.077
22,AYVIRAKEC,0.162 ± 0.39
23,AYYCLRDLEVEYKVGYGSRL,2.64 ± 0.21
24,AYYLFYTRGEFR,3.2 ± 0.09
25,AYYSVSC,3 ± 0.11

row,Substance,amyloid nucleation score
1,CALFLFRKVLVLIT,-1.48 ± 0.55
2,CAMDCSSVQGGSTITKCHTM,0.218 ± 1.1
3,CARYLIEVRYKGKKIQYSM,-0.837 ± 0.39
4,CASAVLCCPKTSR,-0.02 ± 0.34
5,CASNQCTGP,3.28 ± 0.065
6,CAVEVM,-0.724 ± 0.64
7,CAVGDPYCSAMFMMNLWGEK,9.547 ± 0.052
8,CCCASR,inactive
9,CCICKSRHLFDWKNDEWTSI,-0.45 ± 0.63
10,CCILVSWFGIHSRCGVRCAR,0.877 ± 0.3
11,CCIRQCNMRIKADDQRRDVI,0.109 ± 0.53
12,CCIRSLWLNLVLTNASGPSL,4.39 ± 0.049
13,CCVYAASLLPFQLVAALLTD,0.91 ± 0.34
14,CCYLFRSLRLVGSQIFSQSL,0.35 ± 0.8
15,CDAGFEIVLSLIN,-0.828 ± 0.74
16,CDFLLLKLFRNVLVWLVCSG,inactive
17,CEEFMKFFAGYQTHVLVFSR,inactive
18,CESENKQYKNRLEIP,-2.05 ± 0.54
19,CFCWLLNSNLKGNLSRGRHL,-0.337 ± 1.1
20,CFFLTHCRDIRNVSTV,-0.234 ± 0.37
21,CFIKVAVNWQL,8.826 ± 0.057
22,CFIRHISGK,-0.315 ± 0.63
23,CFLWHAT,0.451 ± 0.41
24,CFMFWLCITNGIRPQCPLAS,0.016 ± 0.65
25,CFNIQNFELNRVMNLFYCRY,6.37 ± 0.075

row,Substance,amyloid nucleation score
1,CFNVV,0.43 ± 0.49
2,CFRDTFERSFKFLERPNIMH,1.26 ± 0.19
3,CFRRKGALSLIACRW,-0.03 ± 0.46
4,CFSLRVENSVRRTTTHPCLD,3.87 ± 0.075
5,CFSNFVG,0.746 ± 0.31
6,CFSSVIFAMIFVRNR,1.73 ± 0.21
7,CFTKDMLSDNCVSV,-0.845 ± 1
8,CGCCRTRGL,2.94 ± 0.054
9,CGHVTMHRWGMKNIMLVYAV,-0.889 ± 1
10,CGPPVIWVLLCKLGMFWTVS,-0.555 ± 0.55
11,CGRRMYKSIVQICMFRGNLN,0.053 ± 0.79
12,CGRSRKRCIRASRSGSLNMC,0.293 ± 0.53
13,CHANFNVG,1.58 ± 0.19
14,CHCMLIG,3.46 ± 0.066
15,CHFSYKECRSAVRMLQYNGA,2.54 ± 0.13
16,CHGNGQLK,inactive
17,CHHGRYIQRVGYRLVPSAFQ,0.098 ± 1
18,CHLHIYGTRIERAYHRDFFL,3.4 ± 0.1
19,CHRKWRYLMEASHRLSHSSW,inactive
20,CHVFTSSSTRSLWTSDIIPS,0.218 ± 0.48
21,CIFFPRGSNFFLFQMCGLSF,3.83 ± 0.097
22,CIFPPYVWYGIVMVYASMYG,6.602 ± 0.039
23,CIFYFMILFSGDIKCLNKPL,inactive
24,CIGYLMEIHVFSNDAKVYYL,6.24 ± 0.038
25,CILDI,-0.089 ± 1.1

row,Substance,amyloid nucleation score
1,CILEHRSEQWYCYLWPARRG,4.24 ± 0.078
2,CILRPSLSFFHMPLR,6.962 ± 0.033
3,CILSYVQEMTMEPYLSKSLS,-0.296 ± 0.76
4,CILYKEACEIVIFPGFTVAN,-1.15 ± 1
5,CINLTLYFMQ,9.091 ± 0.053
6,CIRTDFGA,-0.086 ± 0.35
7,CISTLIGTRPTAYLLLLRDI,inactive
8,CITLMYNTPFYKITALWQPF,-0.484 ± 0.78
9,CIYRHAFVLFTKPLNFGRVR,-0.166 ± 0.49
10,CKAIFFLLDPPTFIYRGSSC,0.079 ± 0.57
11,CKEYMMIFMTIIKVYLNTYL,-0.698 ± 0.78
12,CKFLRVIA,-1.42 ± 0.41
13,CKIRNDSSSSRLVIHILDTA,6.357 ± 0.059
14,CKPRNLLLLSPKPIVLCKDF,-1.21 ± 0.79
15,CKSQLHLRVRTRKNVCVVIS,0.13 ± 0.62
16,CLAVSSDVDSQGKGIRIYIL,-1.24 ± 1.1
17,CLDVLLDKGSADIYFRQSSN,-1.06 ± 0.61
18,CLFSTCTRCCLSNGFNAITR,inactive
19,CLFVTVGFCICCLFFLWFCL,5 ± 0.1
20,CLGGNHYHPSSTVTEQRYLT,0.859 ± 0.48
21,CLGNHIDSCVVFLTDAESSS,-0.484 ± 0.65
22,CLNRNGKEVTWVGLIC,2.46 ± 0.069
23,CLQVAKDADFCIKAVEERGW,2.42 ± 0.19
24,CLVFTRVWYCAIYRTSFKET,-0.474 ± 0.38
25,CLWVRGSCC,-1.04 ± 0.55

row,Substance,amyloid nucleation score
1,CLWVSMDGHSFWRKFNAVI,inactive
2,CLYLACIEGWLP,3.24 ± 0.056
3,CLYPLSVDVVSFHYCTTCCE,0.141 ± 0.33
4,CLYRTLWSCLWSGMMIFCTD,-1.77 ± 1
5,CMGFSSLFFQGWVVIDCLW,-1.1 ± 0.76
6,CMLDA,-0.555 ± 0.76
7,CMQLSYSYSLTFEGQCHLVG,4.27 ± 0.088
8,CNGLAQKIILSTRRLLLVPG,0.537 ± 0.34
9,CNIVNFMWAGENFR,5.48 ± 0.086
10,CNKTLLFIFPVLGQQDGDFG,4.417 ± 0.044
11,CNLWSDLGWYYQAMWKIRRD,inactive
12,CNMFCFDCCLWFGGMRISST,8.315 ± 0.042
13,CNRESEWIECVRGFLEYANG,1.44 ± 0.11
14,CNRMGFHMFDCF,inactive
15,CNRQAAMKAPSETCDVVACF,4.52 ± 0.083
16,CNSCSP,0.811 ± 0.67
17,CNSRCEDWPWIERTPG,0.571 ± 0.47
18,CNVLSRRNGKLRACFS,0.732 ± 0.4
19,CNVTIIYVPYGEWTTFYLRL,7.45 ± 0.082
20,CNVWDVSGDTFVTYGKDDRG,0.275 ± 0.25
21,CNWGRTFCRRVSVPVRRSDL,-0.074 ± 1.1
22,CPIDYGTSVNHDNKVSILYL,0.534 ± 0.51
23,CPSLRGVVVRSLSTGSSDAR,0.163 ± 0.56
24,CQISGCYWV,5.28 ± 0.074
25,CRGTIWIAYSRYYYYRMNDF,inactive

row,Substance,amyloid nucleation score
1,CRLADFAPFRHCFFSHDCSR,3.57 ± 0.046
2,CRMMI,0.591 ± 0.36
3,CRRHVMFYTCMLE,4.27 ± 0.064
4,CRRTFDSLIS,-0.74 ± 0.78
5,CRYPFTPACTYMNLG,-0.114 ± 1
6,CSCQAVLLLASSRPAIKVRC,1.86 ± 0.31
7,CSFSYGMYSK,0.401 ± 0.23
8,CSMVNDLSFNIEARMQSWNS,0.028 ± 0.79
9,CSQIRFGRADRLNETSIKLV,0.333 ± 0.54
10,CSRKDYSYRVMKFVFCIYGL,6.45 ± 0.061
11,CSSDSIYSSWWFSLYNITGE,inactive
12,CSSEDITYAWQWARWLRS,0.494 ± 0.41
13,CSSFKSLIRLGTLNRRNRNE,3.68 ± 0.059
14,CSSNCFYEAFVLGYKTHARE,0.295 ± 1
15,CSSTAVFTRLIKADIWVRSA,-1.35 ± 0.36
16,CSVVGWE,0.671 ± 0.66
17,CSVWRDLVAICLRD,inactive
18,CSYCFCCVH,8.29 ± 0.065
19,CTCQVFPHNALCQGSWVLPV,1.07 ± 0.27
20,CTDQRGLSIIVLGYNSHSMR,5.682 ± 0.054
21,CTRRDFFGQTTAHVSVWCTG,4.33 ± 0.081
22,CTRRRM,1.63 ± 0.15
23,CTSVKQNDLKGSLIN,inactive
24,CTVCITKGWLMHVWYYAYRW,0.902 ± 0.22
25,CVACLDM,inactive

row,Substance,amyloid nucleation score
1,CVGDAALWWVVFIYGEHSRV,0.022 ± 0.41
2,CVGGWWPRQRLFCIWFIIAV,1.72 ± 0.31
3,CVKRRWPEVIRVHVGGYSFN,0.455 ± 0.5
4,CVLSKEI,0.387 ± 0.3
5,CVLTRVFETTSCVSIHLF,-1.64 ± 0.79
6,CVSDCD,3.45 ± 0.14
7,CVSEARRIE,-0.36 ± 0.35
8,CVSSRDRG,0.439 ± 0.27
9,CVSVPFYQVCFVGPKMEPLG,0.636 ± 0.18
10,CVSWRYFMFPCLVSLEMSSS,3.71 ± 0.085
11,CVTDATVKNYI,-1.42 ± 0.78
12,CVVRFRGPYKFCWPQDRSYS,0.247 ± 0.8
13,CVYPGEMLWRI,-0.609 ± 0.76
14,CWPCRMMKLVREESAVYTGG,0.062 ± 0.34
15,CWRFVSCNTNYNWTMQGFYY,-1.38 ± 1.1
16,CWSPLGTFSLLALMGASKTL,0.103 ± 0.42
17,CWVRISDLCLYKFVGVPMSV,0.312 ± 0.8
18,CYFSDPVHLENPSINSISFW,inactive
19,CYMTFYVMLTLDRTQSHSGH,7.411 ± 0.051
20,CYMYDSVTNWTYWLSG,-0.679 ± 0.26
21,CYSILFSLKQIDRLLITLPR,-1.04 ± 0.5
